Results published in patent US7485618B2, “FGF-5 supported and binding peptides” (Genencor International, Inc., priority 2003, dated 2009).

Target: T1, FGF-5 (Homo sapiens, UniProt P12034)
T1 construct: host or cells: FGF-5 added exogenously to NR6R-3T3 murine fibroblasts
T1 sequence (P12034 21-268): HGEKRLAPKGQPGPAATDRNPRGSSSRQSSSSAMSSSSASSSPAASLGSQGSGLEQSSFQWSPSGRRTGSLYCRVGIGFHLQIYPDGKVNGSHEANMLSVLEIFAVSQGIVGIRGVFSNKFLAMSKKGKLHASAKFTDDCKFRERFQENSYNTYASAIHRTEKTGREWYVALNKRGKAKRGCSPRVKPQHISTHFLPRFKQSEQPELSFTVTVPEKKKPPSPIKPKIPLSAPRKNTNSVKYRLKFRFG
Assay: BLA binding assay on FGF-5 coated plates, nitrocefin readout
Conditions: purified peptide-BLA fusions at 0.1 nM, bound to FGF-5
Experimental: This Example describes secondary screening methods used to analyze FGF-5 binding npeptides. Individual clones were picked and grown up in 5 ml LB+5 ppm CMP overnight at 37° C. The cell pastes were then treated with 125μ of B-PER reagent (Pierce) for 30 min with slow mixing. COSTAR plates (96-well) were coated with 0.1 μg (100 μl of 1 μg/ml) FGF-5, carrier-free (R&D Systems #237-F5/CF, Lot #GQ18304A) with gentle rocking at 4° C. overnight, followed by blocking with Superblock blocking buffer (Pierce) for several hours at room temperature. Then, 100 μl B-Per treated supernatant from individual clones from pGV02-L were added to the FGF-5 coated plates. After one hour, plates were washed six times with PBS, 0.05% TWEEN®-20 and 200 μl of nitrocefin assay buffer containing 0.1 mg/ml nitrocefin (Oxoid) was added to measure residual bound beta-lactamase activity, using Abs490/min. Control wells contained pCB04 (See, FIG. 1C) beta-lactamase as a control. […] These clones were sequenced, and the results are provided in Table 1, where the first column is the name of the peptide, the second column is the nucleotide sequence and the third column is the amino acid sequence of the peptide:
Cell pastes were harvested from the 200 ml cell cultures described in Example 6, by centrifugation at 3,000×g for 10 min. The pastes were then treated with 25 ml of B-PER reagent (Pierce) for 40 min with slow mixing. The extract was separated by centrifugation at 20,000 g for 20 min. BLA activity of all liquid fractions was assayed using nitrocefin, and the concentration of fusion proteins in each fraction was calculated assuming the same specific activity as the WT enzyme. Fusion proteins were purified by IMAC chromatography (See, FIG. 4). The imidazole-eluted BLA-active fractions were pooled and the purity was found better than 95% as checked by SDS-PAGE. (See, FIG. 5).
The binding (BLA assay) was repeated using different peptide concentrations to see a dose response. To verify specific binding, the assay was also done using an irrelevant target. The results are shown in FIG. 6 and in Table 2, below.

Row | Sequence | Percent Bound at 0.1 nM [%]
1 | CEEIWTMLC (synthesized FGF-5 binding peptide) [1A6, tested as BLA and BBI/BCE fusions] | 8
2 | CHYLLTNYC (synthesized FGF-5 binding peptide) [2H9, tested as BLA fusion] | 5
3 | CLTVLWTTC (synthesized FGF-5 binding peptide) [2E2, tested as BLA and BBI/BCE fusions] | 7
4 | CRIHLAHKC (synthesized FGF-5 binding peptide) [2H10, tested as BLA fusion] | 8
